{
  "source": "paper PMC4698670",
  "about": "“Fortilin potentiates the peroxidase activity of Peroxiredoxin-1 and protects against alcohol-induced liver damage in mice” (Scientific Reports, 2016)",
  "binders": {"B1": {"name": "recombinant human fortilin tagged with the Strep-tag II (natural protein, UniProt P13693 1-172, looked up)", "chain": "MIIYRDLISHDEMFSDIYKIREIADGLCLEVEGKMVSRTEGNIDDSLIGGNASAEGPEGEGTESTVITGVDIVMNHHLQETSFTKEAYKKYIKDYMKSIKGKLEEQRPERVKPFMTGAAEQIKHILANFKNYQFFIGENMNPDGMVALLDYREDGVTPYMIFFKDGLEMEKC", "modifications": "biotin (biotinylated for the biolayer interferometry)", "notes": "human fortilin (TCTP) cDNA in the pESG-IBA5 vector; Biotinylated only for the biolayer interferometry; used without biotin in the activity and phosphorylation assays; also called recombinant fortilin; wild-type fortilin; source: 293T cells stably expressing it, purified (Strep-Tactin-Superflow resin)"}},
  "target": "T1, recombinant human PRX1 (Sigma-Aldrich) (human, UniProt Q06830 1-199)",
  "T1 construct": "recombinant human peroxiredoxin-1, bought; construct not described; also called recombinant PRX1; source: bought: Sigma-Aldrich",
  "T1 sequence (looked up)": "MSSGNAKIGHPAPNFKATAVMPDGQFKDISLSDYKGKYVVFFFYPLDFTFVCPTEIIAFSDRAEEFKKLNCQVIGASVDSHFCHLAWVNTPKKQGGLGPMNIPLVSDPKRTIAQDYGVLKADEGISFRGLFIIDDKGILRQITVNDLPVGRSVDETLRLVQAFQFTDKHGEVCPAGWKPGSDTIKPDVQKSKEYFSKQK",
  "assay": "BLI; BLItz; biotinylated fortilin immobilized on streptavidin biosensors (1 μg/mL, 25 mM Tris, 150 mM NaCl, 0.1% Tween-20), then PBS; recombinant PRX1 in solution, 180 s association, 300 s dissociation in PBS; three independent experiments",
  "settings": "both partners purified",
  "data": [
    {"binder": "B1", "values": [
      {"measurement": "Kd", "result": 0.125, "unit": "µM"}
    ]}
  ]
}
